Measurements published in patent US11351270B2, “Junctophilin-2 fragments and uses therefor” (University of Iowa Research Foundation, priority 2016, dated 2022).

Tests used:
JP2-KD cardiomyocytes = assay: Confocal Ca2+ imaging in JP2-KD cardiomyocytes after adenoviral expression; type: cell-based, mouse
From the text: Specifically, conditional shJP2 mice (provided by Dr. Wehrens) (van Oort et al., 2011) were crossed with mice carrying the cardiac-specific α-myosin heavy chain promoter upstream of Cre (% MHC-Cre, also FVB-Tg(Myh6-cre)2182Mds/J, The Jackson Laboratory). The shJP2 mice were maintained on a C57BL/6 background for more than 10 generations. The αMHC-Cre mice were maintained on an FVB background. PCR was used to genotype the offspring. The near complete depletion of JP2 protein in JP2-KD (αMHC-Cre X shJP2) hearts has been reported recently (Chen et al., 2013). JP2-KD mice were sacrificed at 2 months of age for isolation and culture of ventricular cardiomyocytes as described below.
(§1) Genecarrior-1 (Epoch Lab) was used to transfect plasmids into HEK293T cells. Isolation and culture of cardiomyocytes were performed as described previously (Guo et al., 2012). […] Ca^2+ Imaging experiments were performed 40 hours after adenoviral infection.
(§2) Cells were loaded with Rhod-2AM at 37° C. for 20 minutes, followed by washing with Tyrode's solution at room temperature for 15 minutes before Ca^2+ imaging. Confocal images were acquired using a ×63, 1.3 numerical aperture oil immersion objective mounted on a Zeiss LSM 510 confocal microscope. Confocal line scanning was used to record Ca^2+ signals. Steady-state Ca^2+ transients were recorded in Tyrode's solution containing 1.8 mM Ca^2+ under field stimulation of 1 Hz. At least five steady-state transients for each cell were analyzed and averaged to represent Ca^2+ signals of the cell. Ca^2+ imaging data were analyzed by using a home-complied software, CaTeasy, which is coded in MATLAB 2013a (Mathworks). Briefly, the program normalizes Ca^2+ transient images on a column-by-column basis (512 columns/image). The characteristic parameters of normalized transients were detected automatically. The firing time of every scanning pixel was detected column by column on the basis of the maximum local variability of pixel intensity. The profile of the point-to-point firing time was indicated by a red line overlapping on the Ca^2+ image. Index of desynchronization, defined by the mean absolute deviation of firing time of each scanning pixel (with every 8 pixels binned), was used to evaluate the dyssynchrony of Ca^2+ transients. This automated software for calcium transient analysis is available upon request.

WT cardiomyocytes = assay: Confocal Ca2+ imaging in WT cardiomyocytes after adenoviral expression; type: cell-based, mouse; conditions: 1-Hz field stimulation; overexpression in WT cardiomyocytes
Experimental: as §1
as §2, with “Index of desynchronization, defined by the mean absolute deviation of firing time of each scanning pixel (with every 8 pixels binned), was used to evaluate the dyssynchrony of Ca^2+ transients. This automated software for calcium transient analysis is available upon request.” left out

RyR2 and Cav1.2 = assay: Coimmunoprecipitation with E-C coupling channels; type: binding, mouse; conditions: anti-HA immunoprecipitation
From the text: FIGS. 5A-H. JP2 truncations are nonfunctional in regulating Ca^2+ transients. A) An antibody against the HA tag was used to reveal the localization of adenoviral expression of tagged full-length JP2 and truncations, as indicated, in adult wild-type cardiomyocytes. All the three version of JP2 can be localized in the striated pattern. B) Full-length JP2 and JP2(1-565) forms complexes with RyR2 and Cav1.2 In vivo. An antibody against HA was used for immunoprecipitation […]. The RyR2 and Cav1.2 that were pulled down were detected by Western blot analysis. […] IB, immunoblot. C) Adenovirus-mediated expression of full-length JP2, FLAG-JP2(1-565)-HA, and JP2(566-end)-HA in JP2-KD) cardiomyocytes. D) Representative steady-state Ca^2+ transients under 1-Hz field stimulation. The fluorescence intensity (F) of Ca^2+ imaging was normalized to the baseline (FO). The red lines overlapping on Ca^2+ imaging show the profile of the moment of Ca^2+ transient firing on the scanning line in a point-by-point way. A straighter line means better synchronization of the Ca^2+ transients. Note that expression of full-length JP2, but not JP2 truncations, improves the amplitude and synchronization of Ca^2+ transients. E-G) Summary of Ca^2+ transient amplitude, index of desynchronization (mean absolute deviation of firing time), and duration of 50% decay (T5) (n=68, 70, 70, and 52 for Ad-Empty, Ad-JP2, […], and Ad-JP2(566-end), respectively). Only full-length JP2 Improves the amplitude, synchronization, and decay of Ca^2+ transients. H) Summary of SR Ca^2+ content, which was assessed by caffeine-induced SR Ca^2+ release (n=17, 17, 17, and 12 for Ad-Empty, Ad-JP2, Ad-JP2(1-565), and Ad-JP2(566-end), respectively). **, p<0.01 versus indicated groups; N.S., not significant.
Cleavage at the primary calpain proteolysis site (Arg-565/Thr-566) splits apart the C-terminal SR-binding TM domain and N-terminal plasma membrane-binding MORN domains of JP2. […]

[1] = tested on: cultured adult murine cardiomyocytes; assay: Affymetrix Genechip analysis of cultured cardiomyocytes; type: cell-based, mouse; conditions: vs Ad-Empty control
Experimental: Genecarrior-1 (Epoch Lab) was used to transfect plasmids into HEK293T cells. Isolation and culture of cardiomyocytes were performed as described previously (Guo et al., 2015). Adenoviruses were applied at a multiplicity of infection (MOI) of about 100, which results in transfection of almost all cells as confirmed by immunostaining of eptiope tags.
Microarray assay was performed by Affymetrix GeneChip® Mouse Genome 430 2.0 according to the standard procedure of cRNA preparation and Genechip hybridization. The R package limma (version 3.22.7) (Ritchie et al., 2015) was used for processing microarray data and identifying differentially expressed genes (the cutoff of significance was p value<0.01). David (Huang et al., 2009) was used for gene enrichment (GO) analysis. Ingenuity pathway analysis (IPA, Qiagen) was used for pathway analysis.

B1: full-length JP2: full-length junctophilin-2, FLAG/HA tagged, expressed by adenovirus (protein, UniProt Q9BR39 1-696, looked up)
chain: MSGGRFDFDDGGAYCGGWEGGKAHGHGLCTGPKGQGEYSGSWNFGFEVAGVYTWPSGNTFEGYWSQGKRHGLGIETKGRWLYKGEWTHGFKGRYGIRQSSSSGAKYEGTWNNGLQDGYGTETYADGGTYQGQFTNGMRHGYGVRQSVPYGMAVVVRSPLRTSLSSLRSEHSNGTVAPDSPASPASDGPALPSPAIPRGGFALSLLANAEAAARAPKGGGLFQRGALLGKLRRAESRTSVGSQRSRVSFLKSDLSSGASDAASTASLGEAAEGADEAAPFEADIDATTTETYMGEWKNDKRSGFGVSERSSGLRYEGEWLDNLRHGYGCTTLPDGHREEGKYRHNVLVKDTKRRMLQLKSNKVRQKVEHSVEGAQRAAAIARQKAEIAASRTSHAKAKAEAAEQAALAANQESNIARTLARELAPDFYQPGPEYQKRRLLQEILENSESLLEPPDRGAGAAGLPQPPRESPQLHERETPRPEGGSPSPAGTPPQPKRPRPGVSKDGLLSPGAWNGEPSGEGSRSVTPSEGAGRRSPARPATERMAIEALQAPPAPSREPEVALYQGYHSYAVRTTPPEPPPFEDQPEPEVSGSESAPSSPATAPLQAPTLRGPEPARETPAKLEPKPIIPKAEPRAKARKTEARGLTKAGAKKKARKEAALAAEAEVEVEEVPNTILICMVILLNIGLAILFVHLLT
modifications: full-length FLAG/HA tags; adenoviral expression
notes: full-length junctophilin-2, FLAG/HA tagged, expressed by adenovirus
decay phase (T50) of Ca2+ transients (JP2-KD cardiomyocytes; 1-Hz field stimulation): shortened decay phase
synchronization of Ca2+ transients (index of desynchronization) (JP2-KD cardiomyocytes; 1-Hz field stimulation): increased synchronization
increase of Ca2+ transient amplitude (JP2-KD cardiomyocytes; 1-Hz field stimulation, adenoviral expression): 50%
SR Ca2+ content (JP2-KD cardiomyocytes; caffeine-induced SR Ca2+ release): not influenced
kinetics of steady-state Ca2+ transients and SR Ca2+ loading (WT cardiomyocytes): did not alter
interaction with RyR2 and Cav1.2 (RyR2 and Cav1.2): interact
significantly induced known genes (p<0.01) [1]: 96 genes
significantly repressed known genes (p<0.01) [1]: 264 genes
